Source: patent US20260193375A1 (NORMUNITY, published 2026)

B1: anti-LY6K antibody 3719 (antibody, V domains shown)
VH: EVQLVESGGGLVQPGRSLRLSCTASGFTFNDYAMHWVRQAPGKGLEWVSGISWNSNNIDYADSVKGRFTISRDNAKNSLYMQMNSLRAEDTALYYCAKDGPGTTNDAFDIWGQGTMVTVSS
VL: DIQMTQSPSSLSASVGDRVTITCRASHSISSYLNWYQQKPGKAPKLLIYAASSLQSGVPSRFSGSGSGTDFTLTISSLQPEDFATYYCHQGYSTPLTFGGGTKVEIK
B2: anti-LY6K antibody 3527 (antibody, V domains shown)
VH: EVQLVESGGGLVKPGGSLRLSCAASGFTFSSYSMNWVRQAPGKGLEWVSSISSTSSYIYYADSVKGRFTISRDNAKNSLYLQMNSLRAEDTAVYYCARSDYYDSGSYKNYYYYYMDVWGKGTTVTVSS
VL: DIQMTQSPSSLSASVGDRVTITCRTSQSISSYLNWFQQKPGKAPKVLIYAASSLQRGVPSRFSGSGSGTDFTLTISSLQPEDFATYYCQQSYSTPLTFGGGTKVEIK
B3: anti-LY6K antibody 3501 (antibody, V domains shown)
VH: EVQLVESGGGLVQPGRSLRLSCAASGFTFDDYAMHWVRQAPGKGLEWVSGISWNSGTIDYADSVKGRFTISRDNAKNSLYLQVNSLRAEDTALYYCAKDSPQKDYYYMDVWGKGTTVTVSS
VL: DIQMTQSPSSLSASVGDRVTITCRTSQSISSYLNWYQQKPGKAPNLLIYAASSLQSGVPSRFSGSGSGTDFTLTISSLQPEDFATYYCQQSYITPITFGQGTRLEIK
B4: anti-LY6K antibody 3553 (antibody, V domains shown)
VH: QVQLVQSGAEVKKPGASVKVSCKASGYTFTGYYMHWVRQAPGTGLDWMGWISPNSGGTNYAQKFQGRVTMTRDTSISTVYMELSRLRSDDTALYYCAREVGNYWGQGTLVTVSS
VL: DIQMTQSPTSLSTSVGDRVTITCQASQDIYNYLNWYQLKPGKAPKLLIYDASNLERGVTSRFSGSGSGTDFTFTISSLQPEDIATYYCQQYDSLPITFGQGTRLEIK
B5: anti-LY6K antibody 3096 (antibody, V domains shown)
VH: QVQLVQSGAEVKKPGASVRVSCKASGYTFTGYYIHWVRQAPGQGLEWMGWINPNSGGTNYAQKFQDRVTMTRDTSISTVYMELSRLRSDDTAVFFCAREASNFWGQGTLVTVSS
VL: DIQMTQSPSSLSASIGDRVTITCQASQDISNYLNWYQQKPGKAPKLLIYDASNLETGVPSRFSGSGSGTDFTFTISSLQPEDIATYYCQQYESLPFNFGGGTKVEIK
B6: anti-LY6K antibody 3518 (antibody, V domains shown)
VH: EVQLVESGGGLVQPGGSLKLSCAASGFTFSGSAMNWVRQASGKGLEWVGRIRSKANSYATAYAASLKGRFTISRDDSKNTAYLQMNSLKTEDTAVYYCTVTPFDYWGQGTLVTVSS
VL: DIQMTQSPSSLSASVGDRVTITCQASQDISNHLNWYQQKPGKAPKLLINDASNLETGVPSRFSGSGSGTDFTFTISSLQPEDIATYYCQQYDNVPYTFGQGTKLEIK
B7: anti-LY6K antibody 3102 (antibody, V domains shown)
VH: QVQLVQSGAEVKKPGASVKVSCKASGYTFTGYYIHWMRQAPGQGLEWMGWINPNSGGTNYAQNFQGRVTMTRDTSINTAYMELSRLKSDDTAVYYCAKESGSPWGQGTLVTVSS
VL: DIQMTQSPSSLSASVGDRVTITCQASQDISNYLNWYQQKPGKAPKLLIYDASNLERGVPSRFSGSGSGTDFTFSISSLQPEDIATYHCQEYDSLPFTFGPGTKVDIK
B8: anti-LY6K antibody 3514 (antibody, V domains shown)
VH: QVQLVQSGAEVKKPGASVKVSCKASGYTFTSYGISWVRQATGQGLEWMGWMNPNSGNTGYAQKFQGRVTMTRNTSISTAYMELSSLRSEDTAVYYCRAAGYYYYYYYMDVWGKGTTVTVSS
VL: not shown
B9: anti-LY6K antibody 2659 (antibody, V domains shown)
VH: EVQLVESGGGLVQPGRSLRLSCAASGFTFDDYAMHWVRQAPGKGLEWVSGISWKSGIIGYADSVKGRFTISRDNAKNSLYLQMNSLRAEDTALYYCAKDSRTGLDYWGQGTLVTVSS
VL: not shown
notes: Has values only in SPR (CHO supernatant, captured by anti-human IgG-Fc)
B10: anti-LY6K antibody 3055 (antibody, V domains shown)
VH: EVQLVESGGGLVQPGRSLRLSCAASGFTFDDFAMHWVRQAPGKGLEWVSGISWNTGTIGYADSVKGRFTISRDNAKNSLYLQMNSLRAEDTALYYCAKDKGTTGFDYWGQGTLVTVSS
VL: DIQMTQSPSSVSASVGDRVTITCRASQGISRWLVWYQQKPGKAPKLLIYAASSLQSGVPSRFSGSGSGTDFTLTISSLQPEDFATYYCQQANSFPRTFGQGTRLEIK
B11: anti-LY6K antibody 3743 (antibody, V domains shown)
VH: EVQLVESGGGLVHPGRSLRLSCAASGFTFDDYAMHWVRQAPGKGLEWVSGISWKSGRIDYADSVKGRFTISRDNAKNSLYLQMNSLRAEDTALYYCAKDRRELTFDIWGQGTMVTVSS
VL: DIVMTQTPLSSPVTLGQPASISCRSSQSLEHSNGNTYLSWLQQRPGQPPRLLIYKISNRFSGVPDRFSGSGAGTDFTLKISRVEAEDVGVYYCMQTTQFPLTFGGGTKVEIK
B12: anti-LY6K antibody 3063 (antibody, V domains shown)
VH: EVQLVESGGGLVKPGRSLRLSCAASGFTFDDFAMHWVRQAPGKGLEWVSGLSWKGHTLGYADSVKGRFTFSRDSAKNSLYLQMNSLRAEDTALYYCAKDTRSGLDYWGQGTLVTVSS
VL: DIVMTQTPLSSPVTLGQPASISCRSSQSLEHSDGNTYLSWLQQRPGQPPRLLIYKISNRFSGVPDRFSGNGAGTDFTLKISRVEAEDVGIYYCMQATEFPFTFGGGTKVEIK
B13: anti-LY6K antibody 3056 (antibody, V domains shown)
VH: EVQLVESGGGLVQPGRSLRLSCAASGFTYDDYAMHWVRQVPGKGLEWVSGITWKKSIIGYADSVRGRFTVSRDSAKNSLYLQMSSLRVEDTALCYCAKDSTDGLDYWGQGTLVTVSS
VL: DIVMTQTPLSSPVTLGQPASLSCRSSQSLLHSNGNTYLSWLQQRPGQPPRLLIYKISNRFSGVPDRFSGSGAGTDFTLKISRVEGEDVGVYYCMQATEFPYTFGQGTKLEIK
notes: as for B9
B14: anti-LY6K antibody 3728 (antibody, V domains shown)
VH: EVQLVESGGGLVKPGGSLRLSCAASGFTFSDVWMSWVRQAPGKGLEWVGRIKSKTDGGRIDYAAPVKGRFTISRDDSKNTLYLQMNSLKTEDTAVYYCTTVPYSDYWGQGTLVTVSS
VL: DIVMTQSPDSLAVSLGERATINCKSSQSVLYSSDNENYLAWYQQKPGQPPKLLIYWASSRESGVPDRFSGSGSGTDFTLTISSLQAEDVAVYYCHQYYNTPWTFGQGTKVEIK

Tests used:
[1] = biological target: T1, cynomolgus monkey LY6K (R&D Systems) (cynomolgus monkey); assay: ELISA, coated antigen, IgG1 at 10 ug/ml
T1 construct: also called cyLY6K

[2] = biological target: T2, rat LY6K (R&D Systems) (rat); assay: ELISA, coated antigen, IgG1 at 10 ug/ml
T2 construct: also called rLY6K

[3] = biological target: T3, human LY6E (R&D Systems) (human, UniProt Q16553 21-101, limits assumed); assay: ELISA, coated antigen, IgG1 at 10 ug/ml
T3 construct: also called hLY6E
T3 sequence (looked up): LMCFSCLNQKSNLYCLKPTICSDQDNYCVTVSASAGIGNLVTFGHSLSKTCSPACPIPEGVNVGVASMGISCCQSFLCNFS

[4] = biological target: T4, Ly6D; assay: ELISA, antigen coated on the plate, antibody as human IgG1, anti-human F(ab)2 HRPO
T4 chain: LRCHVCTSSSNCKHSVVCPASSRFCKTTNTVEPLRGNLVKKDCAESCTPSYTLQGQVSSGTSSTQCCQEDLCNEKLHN

[5] = biological target: T5, Ly6H; assay: as above
T5 chain: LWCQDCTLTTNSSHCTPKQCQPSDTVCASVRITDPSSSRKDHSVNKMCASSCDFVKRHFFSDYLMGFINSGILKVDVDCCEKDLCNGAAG

[6] = biological target: T3, human LY6E (R&D Systems); assay: as above
[7] = biological target: T6, Human LY6K (R&D Systems) (human, UniProt Q17RY6 18-138, limits assumed); assay: ELISA, coated antigen, IgG1 at 10 ug/ml
T6 construct: Bought from R&D Systems, coated on ELISA plates; also called hLY6K
T6 sequence: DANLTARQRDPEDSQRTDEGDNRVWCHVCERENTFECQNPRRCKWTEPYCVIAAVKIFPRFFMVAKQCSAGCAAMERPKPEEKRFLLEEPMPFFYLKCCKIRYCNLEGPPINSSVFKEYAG

[8] = biological target: T7, hLY6K-his (human, UniProt Q17RY6 18-138, limits assumed); assay: SPR (Carterra LSA), mAb captured on anti-human IgG-Fc, antigen as analyte
T7 construct: not shown: his tag
T7 sequence: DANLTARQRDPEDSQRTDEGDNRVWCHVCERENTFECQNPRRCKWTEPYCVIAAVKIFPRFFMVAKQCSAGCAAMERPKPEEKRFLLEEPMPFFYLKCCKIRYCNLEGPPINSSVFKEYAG

[9] = biological target: T8, hLY6K-mFc (human, UniProt Q17RY6 18-138); assay: as above
T8 construct: not shown: mFc
T8 sequence: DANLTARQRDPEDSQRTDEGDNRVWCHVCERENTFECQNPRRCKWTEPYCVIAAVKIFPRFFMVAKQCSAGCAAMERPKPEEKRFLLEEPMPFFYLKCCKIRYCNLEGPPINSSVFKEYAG

[10] = biological target: cyLY6K-mFc (cynomolgus monkey); assay: as above

| Binder | % of maximum of commercial anti-LY6K mAb on human LY6K [1] [%] | % of maximum of commercial anti-LY6K mAb on human LY6K [2] [%] | % of maximum of commercial anti-LY6K mAb on human LY6K [3] [%] | binding result [4] | binding result [5] | binding result [6] | % of maximum of commercial anti-LY6K mAb on human LY6K [7] [%] | Kd [8] [nM] | Kd [9] [nM] | Kd [10] [nM] |
| --- | --- | --- | --- | --- | --- | --- | --- | --- | --- | --- |
| B1 | 0.8 | -1.7 | 4.2 | no binding (tested: 10 µg/ml) | no binding (tested: 10 µg/ml) | no binding (tested: 10 µg/ml) | – | – | – | – |
| B2 | 58 | 1.1 | 4.6 | – | – | – | 54.6 | – | – | – |
| B3 | 2 | 0.4 | 4.3 | no binding (tested: 10 µg/ml) | no binding (tested: 10 µg/ml) | no binding (tested: 10 µg/ml) | – | – | – | – |
| B4 | 28.9 | 2.4 | 5 | – | – | – | 26 | – | – | – |
| B5 | 37.2 | 0 | 1 | – | – | – | 35 | 63.8 | 1.36 | 9.49 |
| B6 | 2.7 | 2.1 | 2.1 | – | – | – | – | – | – | – |
| B7 | 40.1 | 0.2 | 3.8 | – | – | – | 38.4 | – | – | – |
| B8 | 2.6 | 0 | 2.9 | – | – | – | – | – | – | – |
| B9 | – | – | – | – | – | – | – | 6.13 | 0.034 | – |
| B10 | 40.3 | 0.4 | – | – | – | – | 22.6 | – | – | – |
| B11 | 3.5 | 2.6 | 5 | – | – | – | – | – | – | – |
| B12 | 2.6 | -0.2 | 4.2 | no binding (tested: 10 µg/ml) | no binding (tested: 10 µg/ml) | no binding (tested: 10 µg/ml) | – | – | – | – |
| B13 | – | – | – | – | – | – | – | 0.472 | 0.0233 | – |
| B14 | 110 | -1.3 | 1 | – | – | – | 96.4 | 4.96 | 0.00734 | 0.0786 |
